Test results as given in patent US7951595B2, “Methods for screening modulators of SLC17-type anion transport activity” (National University Corporation Okayama University, priority 2007, dated 2011).

Substrate: Nc1ncnc2c1ncn2[C@@H]1O[C@H](COP(=O)(O)OP(=O)(O)OP(=O)(O)O)[C@@H](O)[C@H]1O
Assay: purified protein, by the assay type
Settings: other: reconstituted mSLC17A9, membrane potential-dependent transport, calculated using KaleidaGraph; pH 7.0; 27.0 °C

B1: mouse SLC17A9 (mSLC17A9) (Mus musculus) (protein)
chain: MPSQRSSLMQPIPEETRKTPSAAAEDTRWSRPECQAWTGILLLGTCLLYCARVTMPVCTVAMSQDFGWNKKEAGIVLSSFFWGYCLTQVVGGHLGDRIGGEKVILLSASAWGFITVTTPLLAHLGSGHLAFLTFSRILTGLLQGVYFPALTSLLSQKVQESERAFTYSTVGAGSQVGTLVTGGVGSVLLDQCGWQSVFYFSGGLTLLWAYYVYRYLLNEKDLVLALGFLAQGLPVTKPSKVPWRQLFRKASVWAAICSQLCSACSFFILLSWLPTFFKETFPNSKGWVFNVVPWMLAIPASLFSGFISDRLISQGYRVITVRKFMQVMGLGLSSIFALCLGHTTSFLKAMIFASASIGFQTFNHSGISVNIQDLAPSCAGFLFGVANTAGALAGVVGVCLSGYLIETTGSWTCVFHLVAIISNLGLGTFLVFGKAQRVDLVPTHEDL
  Km: 230 µM
  Vmax: 23.8 nmol/min/mg of protein
